Results from publication doi:10.1101/748145 (bioRxiv, 2019).

Biological target: the molecule itself
Assay: negative stain EM

B1: LetB three-ring truncation mutant (rings 2-5 deleted), TM helix removed (domain or fragment)
chain: QDRGNTVTIDFMSADGIVPGRTPVRYQGVEVGTVQDISLSDDLRKIEVKVSIKSDMKDALREETQFWLVTPKASLAGVSGLDALVGGNYIGMMPGKGKEQDHFVALDTQPKYRLDNGSETAARAVGGQITLHAFDAGKLAVGMPIRYLGIDIGQIQTLDLITARNEVQAKAVLYPEYVQTFARGGTRFSVVTPQISAAGVEHLDTILQPYINVEPGRGNPRRDFELQEATITDSRYLDGLSIIVEAPEAGSLGIGTPVLFRGLEVGTVTGMTLGTLSDRVMIAMRISKRYQHLVRNNSVFWLASGYSLDFGLTGGVVKTGTFNQFIRGGIAFATPPGTPLAPKAQEGKHFLLQESEPKEWREWGTALPK
stoichiometry N: 6

B2: LetB L243N (periplasmic domain) (domain or fragment, E. coli, UniProt P76272 43-877, looked up)
chain: QDRGNTVTIDFMSADGIVPGRTPVRYQGVEVGTVQDISLSDDLRKIEVKVSIKSDMKDALREETQFWLVTPKASLAGVSGLDALVGGNYIGMMPGKGKEQDHFVALDTQPKYRLDNGDLMIHLQAPDLGSLNSGSLVYFRKIPVGKVYDYAINPNKQGVVIDVLIERRFTDLVKKGSRFWNVSGVDANVSISGAKVKLESNAALVNGAIAFDSPEESKPAEAEDTFGLYEDLAHSQRGVIIKLELPSGAGLTADSTPLMYQGLEVGQLTKLDLNPGGKVTGEMTVDPSVVTLLRENTRIELRNPKLSLSDANLSALLTGKTFELVPGDGEPRKEFVVVPGEKALLHEPDVLTLTLTAPESYGIDAGQPLILHGVQVGQVIDRKLTSKGVTFTVAIEPQHRELVKGDSKFVVNSRVDVKVGLDGVEFLGASASEWINGGIRILPGDKGEMKASYPLYANLEKALENSLSDLPTTTVSLSAETLPDVQAGSVVLYRKFEVGEVITVRPRANAFDIDLHIKPEYRNLLTSNSVFWAEGGAKVQLNGSGLTVQASPLSRALKGAISFDNLSGASASQRKGDKRILYASETAARAVGGQITLHAFDAGKLAVGMPIRYLGIDIGQIQTLDLITARNEVQAKAVLYPEYVQTFARGGTRFSVVTPQISAAGVEHLDTILQPYINVEPGRGNPRRDFELQEATITDSRYLDGLSIIVEAPEAGSLGIGTPVLFRGLEVGTVTGMTLGTLSDRVMIAMRISKRYQHLVRNNSVFWLASGYSLDFGLTGGVVKTGTFNQFIRGGIAFATPPGTPLAPKAQEGKHFLLQESEPKEWREWGTALPK
stoichiometry N: 6

B3: LetB L246N (periplasmic domain) (domain or fragment, E. coli, UniProt P76272 43-877, looked up)
chain: QDRGNTVTIDFMSADGIVPGRTPVRYQGVEVGTVQDISLSDDLRKIEVKVSIKSDMKDALREETQFWLVTPKASLAGVSGLDALVGGNYIGMMPGKGKEQDHFVALDTQPKYRLDNGDLMIHLQAPDLGSLNSGSLVYFRKIPVGKVYDYAINPNKQGVVIDVLIERRFTDLVKKGSRFWNVSGVDANVSISGAKVKLESLAANVNGAIAFDSPEESKPAEAEDTFGLYEDLAHSQRGVIIKLELPSGAGLTADSTPLMYQGLEVGQLTKLDLNPGGKVTGEMTVDPSVVTLLRENTRIELRNPKLSLSDANLSALLTGKTFELVPGDGEPRKEFVVVPGEKALLHEPDVLTLTLTAPESYGIDAGQPLILHGVQVGQVIDRKLTSKGVTFTVAIEPQHRELVKGDSKFVVNSRVDVKVGLDGVEFLGASASEWINGGIRILPGDKGEMKASYPLYANLEKALENSLSDLPTTTVSLSAETLPDVQAGSVVLYRKFEVGEVITVRPRANAFDIDLHIKPEYRNLLTSNSVFWAEGGAKVQLNGSGLTVQASPLSRALKGAISFDNLSGASASQRKGDKRILYASETAARAVGGQITLHAFDAGKLAVGMPIRYLGIDIGQIQTLDLITARNEVQAKAVLYPEYVQTFARGGTRFSVVTPQISAAGVEHLDTILQPYINVEPGRGNPRRDFELQEATITDSRYLDGLSIIVEAPEAGSLGIGTPVLFRGLEVGTVTGMTLGTLSDRVMIAMRISKRYQHLVRNNSVFWLASGYSLDFGLTGGVVKTGTFNQFIRGGIAFATPPGTPLAPKAQEGKHFLLQESEPKEWREWGTALPK
stoichiometry N: 6

B4: LetB L358N (periplasmic domain) (domain or fragment, E. coli, UniProt P76272 43-877, looked up)
chain: QDRGNTVTIDFMSADGIVPGRTPVRYQGVEVGTVQDISLSDDLRKIEVKVSIKSDMKDALREETQFWLVTPKASLAGVSGLDALVGGNYIGMMPGKGKEQDHFVALDTQPKYRLDNGDLMIHLQAPDLGSLNSGSLVYFRKIPVGKVYDYAINPNKQGVVIDVLIERRFTDLVKKGSRFWNVSGVDANVSISGAKVKLESLAALVNGAIAFDSPEESKPAEAEDTFGLYEDLAHSQRGVIIKLELPSGAGLTADSTPLMYQGLEVGQLTKLDLNPGGKVTGEMTVDPSVVTLLRENTRIELRNPKLSLSDANLSANLTGKTFELVPGDGEPRKEFVVVPGEKALLHEPDVLTLTLTAPESYGIDAGQPLILHGVQVGQVIDRKLTSKGVTFTVAIEPQHRELVKGDSKFVVNSRVDVKVGLDGVEFLGASASEWINGGIRILPGDKGEMKASYPLYANLEKALENSLSDLPTTTVSLSAETLPDVQAGSVVLYRKFEVGEVITVRPRANAFDIDLHIKPEYRNLLTSNSVFWAEGGAKVQLNGSGLTVQASPLSRALKGAISFDNLSGASASQRKGDKRILYASETAARAVGGQITLHAFDAGKLAVGMPIRYLGIDIGQIQTLDLITARNEVQAKAVLYPEYVQTFARGGTRFSVVTPQISAAGVEHLDTILQPYINVEPGRGNPRRDFELQEATITDSRYLDGLSIIVEAPEAGSLGIGTPVLFRGLEVGTVTGMTLGTLSDRVMIAMRISKRYQHLVRNNSVFWLASGYSLDFGLTGGVVKTGTFNQFIRGGIAFATPPGTPLAPKAQEGKHFLLQESEPKEWREWGTALPK
stoichiometry N: 6

B5: LetB L355N (periplasmic domain) (domain or fragment, E. coli, UniProt P76272 43-877, looked up)
chain: QDRGNTVTIDFMSADGIVPGRTPVRYQGVEVGTVQDISLSDDLRKIEVKVSIKSDMKDALREETQFWLVTPKASLAGVSGLDALVGGNYIGMMPGKGKEQDHFVALDTQPKYRLDNGDLMIHLQAPDLGSLNSGSLVYFRKIPVGKVYDYAINPNKQGVVIDVLIERRFTDLVKKGSRFWNVSGVDANVSISGAKVKLESLAALVNGAIAFDSPEESKPAEAEDTFGLYEDLAHSQRGVIIKLELPSGAGLTADSTPLMYQGLEVGQLTKLDLNPGGKVTGEMTVDPSVVTLLRENTRIELRNPKLSLSDANNSALLTGKTFELVPGDGEPRKEFVVVPGEKALLHEPDVLTLTLTAPESYGIDAGQPLILHGVQVGQVIDRKLTSKGVTFTVAIEPQHRELVKGDSKFVVNSRVDVKVGLDGVEFLGASASEWINGGIRILPGDKGEMKASYPLYANLEKALENSLSDLPTTTVSLSAETLPDVQAGSVVLYRKFEVGEVITVRPRANAFDIDLHIKPEYRNLLTSNSVFWAEGGAKVQLNGSGLTVQASPLSRALKGAISFDNLSGASASQRKGDKRILYASETAARAVGGQITLHAFDAGKLAVGMPIRYLGIDIGQIQTLDLITARNEVQAKAVLYPEYVQTFARGGTRFSVVTPQISAAGVEHLDTILQPYINVEPGRGNPRRDFELQEATITDSRYLDGLSIIVEAPEAGSLGIGTPVLFRGLEVGTVTGMTLGTLSDRVMIAMRISKRYQHLVRNNSVFWLASGYSLDFGLTGGVVKTGTFNQFIRGGIAFATPPGTPLAPKAQEGKHFLLQESEPKEWREWGTALPK
stoichiometry N: 6

B6: LetB V247N (periplasmic domain) (domain or fragment, E. coli, UniProt P76272 43-877, looked up)
chain: QDRGNTVTIDFMSADGIVPGRTPVRYQGVEVGTVQDISLSDDLRKIEVKVSIKSDMKDALREETQFWLVTPKASLAGVSGLDALVGGNYIGMMPGKGKEQDHFVALDTQPKYRLDNGDLMIHLQAPDLGSLNSGSLVYFRKIPVGKVYDYAINPNKQGVVIDVLIERRFTDLVKKGSRFWNVSGVDANVSISGAKVKLESLAALNNGAIAFDSPEESKPAEAEDTFGLYEDLAHSQRGVIIKLELPSGAGLTADSTPLMYQGLEVGQLTKLDLNPGGKVTGEMTVDPSVVTLLRENTRIELRNPKLSLSDANLSALLTGKTFELVPGDGEPRKEFVVVPGEKALLHEPDVLTLTLTAPESYGIDAGQPLILHGVQVGQVIDRKLTSKGVTFTVAIEPQHRELVKGDSKFVVNSRVDVKVGLDGVEFLGASASEWINGGIRILPGDKGEMKASYPLYANLEKALENSLSDLPTTTVSLSAETLPDVQAGSVVLYRKFEVGEVITVRPRANAFDIDLHIKPEYRNLLTSNSVFWAEGGAKVQLNGSGLTVQASPLSRALKGAISFDNLSGASASQRKGDKRILYASETAARAVGGQITLHAFDAGKLAVGMPIRYLGIDIGQIQTLDLITARNEVQAKAVLYPEYVQTFARGGTRFSVVTPQISAAGVEHLDTILQPYINVEPGRGNPRRDFELQEATITDSRYLDGLSIIVEAPEAGSLGIGTPVLFRGLEVGTVTGMTLGTLSDRVMIAMRISKRYQHLVRNNSVFWLASGYSLDFGLTGGVVKTGTFNQFIRGGIAFATPPGTPLAPKAQEGKHFLLQESEPKEWREWGTALPK
stoichiometry N: 6

B7: LetB L359N (periplasmic domain) (domain or fragment, E. coli, UniProt P76272 43-877, looked up)
chain: QDRGNTVTIDFMSADGIVPGRTPVRYQGVEVGTVQDISLSDDLRKIEVKVSIKSDMKDALREETQFWLVTPKASLAGVSGLDALVGGNYIGMMPGKGKEQDHFVALDTQPKYRLDNGDLMIHLQAPDLGSLNSGSLVYFRKIPVGKVYDYAINPNKQGVVIDVLIERRFTDLVKKGSRFWNVSGVDANVSISGAKVKLESLAALVNGAIAFDSPEESKPAEAEDTFGLYEDLAHSQRGVIIKLELPSGAGLTADSTPLMYQGLEVGQLTKLDLNPGGKVTGEMTVDPSVVTLLRENTRIELRNPKLSLSDANLSALNTGKTFELVPGDGEPRKEFVVVPGEKALLHEPDVLTLTLTAPESYGIDAGQPLILHGVQVGQVIDRKLTSKGVTFTVAIEPQHRELVKGDSKFVVNSRVDVKVGLDGVEFLGASASEWINGGIRILPGDKGEMKASYPLYANLEKALENSLSDLPTTTVSLSAETLPDVQAGSVVLYRKFEVGEVITVRPRANAFDIDLHIKPEYRNLLTSNSVFWAEGGAKVQLNGSGLTVQASPLSRALKGAISFDNLSGASASQRKGDKRILYASETAARAVGGQITLHAFDAGKLAVGMPIRYLGIDIGQIQTLDLITARNEVQAKAVLYPEYVQTFARGGTRFSVVTPQISAAGVEHLDTILQPYINVEPGRGNPRRDFELQEATITDSRYLDGLSIIVEAPEAGSLGIGTPVLFRGLEVGTVTGMTLGTLSDRVMIAMRISKRYQHLVRNNSVFWLASGYSLDFGLTGGVVKTGTFNQFIRGGIAFATPPGTPLAPKAQEGKHFLLQESEPKEWREWGTALPK
stoichiometry N: 6

B8: LetB two-ring truncation mutant (rings 2-6 deleted), TM helix removed (domain or fragment)
chain: QDRGNTVTIDFMSADGIVPGRTPVRYQGVEVGTVQDISLSDDLRKIEVKVSIKSDMKDALREETQFWLVTPKASLAGVSGLDALVGGNYIGMMPGKGKEQDHFVALDTQPKYRLDNGDGLSIIVEAPEAGSLGIGTPVLFRGLEVGTVTGMTLGTLSDRVMIAMRISKRYQHLVRNNSVFWLASGYSLDFGLTGGVVKTGTFNQFIRGGIAFATPPGTPLAPKAQEGKHFLLQESEPKEWREWGTALPK
stoichiometry N: 6
